Data from publication PMC6442606 (Proceedings of the National Academy of Sciences of the …, 2019).

B1: pregnancy zone protein (PZP) (natural protein, human, UniProt P20742 26-1482, looked up)
chain: TEPQYMVLVPSLLHTEAPKKGCVLLSHLNETVTVSASLESGRENRSLFTDLVAEKDLFHCVSFTLPRISASSEVAFLSIQIKGPTQDFRKRNTVLVLNTQSLVFVQTDKPMYKPGQTVRFRVVSVDENFRPRNELIPLIYLENPRRNRIAQWQSLKLEAGINQLSFPLSSEPIQGSYRVVVQTESGGRIQHPFTVEEFVLPKFEVKVQVPKIISIMDEKVNITVCGEYTYGKPVPGLATVSLCRKLSRVLNCDKQEVCEEFSQQLNSNGCITQQVHTKMLQITNTGFEMKLRVEARIREEGTDLEVTANRISEITNIVSKLKFVKVDSHFRQGIPFFAQVLLVDGKGVPIPNKLFFISVNDANYYSNATTNEQGLAQFSINTTSISVNKLFVRVFTVHPNLCFHYSWVAEDHQGAQHTANRVFSLSGSYIHLEPVAGTLPCGHTETITAHYTLNRQAMGELSELSFHYLIMAKGVIVRSGTHTLPVESGDMKGSFALSFPVESDVAPIARMFIFAILPDGEVVGDSEKFEIENCLANKVDLSFSPAQSPPASHAHLQVAAAPQSLCALRAVDQSVLLMKPEAELSVSSVYNLLTVKDLTNFPDNVDQQEEEQGHCPRPFFIHNGAIYVPLSSNEADIYSFLKGMGLKVFTNSKIRKPKSCSVIPSVSAGAVGQGYYGAGLGVVERPYVPQLGTYNVIPLNNEQSSGPVPETVRSYFPETWIWELVAVNSSGVAEVGVTVPDTITEWKAGAFCLSEDAGLGISSTASLRAFQPFFVELTMPYSVIRGEVFTLKATVLNYLPKCIRVSVQLKASPAFLASQNTKGEESYCICGNERQTLSWTVTPKTLGNVNFSVSAEAMQSLELCGNEVVEVPEIKRKDTVIKTLLVEAEGIEQEKTFSSMTCASGANVSEQLSLKLPSNVVKESARASFSVLGDILGSAMQNIQNLLQMPYGCGEQNMVLFAPNIYVLNYLNETQQLTQEIKAKAVGYLITGYQRQLNYKHQDGSYSTFGERYGRNQGNTWLTAFVLKTFAQARSYIFIDEAHITQSLTWLSQMQKDNGCFRSSGSLLNNAIKGGVEDEATLSAYVTIALLEIPLPVTNPIVRNALFCLESAWNVAKEGTHGSHVYTKALLAYAFSLLGKQNQNREILNSLDKEAVKEDNLVHWERPQRPKAPVGHLYQTQAPSAEVEMTSYVLLAYLTAQPAPTSGDLTSATNIVKWIMKQQNAQGGFSSTQDTVVALHALSRYGAATFTRTEKTAQVTVQDSQTFSTNFQVDNNNLLLLQQISLPELPGEYVITVTGERCVYLQTSMKYNILPEKEDSPFALKVQTVPQTCDGHKAHTSFQISLTISYTGNRPASNMVIVDVKMVSGFIPLKPTVKMLERSSSVSRTEVSNNHVLIYVEQVTNQTLSFSFMVLQDIPVGDLKPAIVKVYDYYETDESVVAEYIAPCSTDTEHGNV
B2: transformed α2M (α2M*) (natural protein, human, UniProt P01023 24-1474, looked up)
chain: SVSGKPQYMVLVPSLLHTETTEKGCVLLSYLNETVTVSASLESVRGNRSLFTDLEAENDVLHCVAFAVPKSSSNEEVMFLTVQVKGPTQEFKKRTTVMVKNEDSLVFVQTDKSIYKPGQTVKFRVVSMDENFHPLNELIPLVYIQDPKGNRIAQWQSFQLEGGLKQFSFPLSSEPFQGSYKVVVQKKSGGRTEHPFTVEEFVLPKFEVQVTVPKIITILEEEMNVSVCGLYTYGKPVPGHVTVSICRKYSDASDCHGEDSQAFCEKFSGQLNSHGCFYQQVKTKVFQLKRKEYEMKLHTEAQIQEEGTVVELTGRQSSEITRTITKLSFVKVDSHFRQGIPFFGQVRLVDGKGVPIPNKVIFIRGNEANYYSNATTDEHGLVQFSINTTNVMGTSLTVRVNYKDRSPCYGYQWVSEEHEEAHHTAYLVFSPSKSFVHLEPMSHELPCGHTQTVQAHYILNGGTLLGLKKLSFYYLIMAKGGIVRTGTHGLLVKQEDMKGHFSISIPVKSDIAPVARLLIYAVLPTGDVIGDSAKYDVENCLANKVDLSFSPSQSLPASHAHLRVTAAPQSVCALRAVDQSVLLMKPDAELSASSVYNLLPEKDLTGFPGPLNDQDNEDCINRHNVYINGITYTPVSSTNEKDMYSFLEDMGLKAFTNSKIRKPKMCPQLQQYEMHGPEGLRVGFYESDVMGRGHARLVHVEEPHTETVRKYFPETWIWDLVVVNSAGVAEVGVTVPDTITEWKAGAFCLSEDAGLGISSTASLRAFQPFFVELTMPYSVIRGEAFTLKATVLNYLPKCIRVSVQLEASPAFLAVPVEKEQAPHCICANGRQTVSWAVTPKSLGNVNFTVSAEALESQELCGTEVPSVPEHGRKDTVIKPLLVEPEGLEKETTFNSLLCPSGGEVSEELSLKLPPNVVEESARASVSVLGDILGSAMQNTQNLLQMPYGCGEQNMVLFAPNIYVLDYLNETQQLTPEIKSKAIGYLNTGYQRQLNYKHYDGSYSTFGERYGRNQGNTWLTAFVLKTFAQARAYIFIDEAHITQALIWLSQRQKDNGCFRSSGSLLNNAIKGGVEDEVTLSAYITIALLEIPLTVTHPVVRNALFCLESAWKTAQEGDHGSHVYTKALLAYAFALAGNQDKRKEVLKSLNEEAVKKDNSVHWERPQKPKAPVGHFYEPQAPSAEVEMTSYVLLAYLTAQPAPTSEDLTSATNIVKWITKQQNAQGGFSSTQDTVVALHALSKYGAATFTRTGKAAQVTIQSSGTFSSKFQVDNNNRLLLQQVSLPELPGEYSMKVTGEGCVYLQTSLKYNILPEKEEFPFALGVQTLPQTCDEPKAHTSFQISLSVSYTGSRSASNMAIVDVKMVSGFIPLKPTVKMLERSNHVSRTEVSSNHVLIYLDKVSNQTLSLFFTVLQDVPVRDLKPAIVKVYDYYETDEFAIAEYNAPCSKDLGNA
modifications: thioester bond reacted (NH4Cl)
B3: hypochlorite-modified α2M (natural protein, human, UniProt P01023 24-1474, looked up)
chain: B2 chain
modifications: hypochlorite (NaOCl)-modified; residues not stated

What was measured:
native gel or EMSA = biological target: the molecule itself; assay: native gel or EMSA
biotinylated Aβ1-42 = biotinylated Aβ1-42 (UniProt P05067 672-713, biotin (position not given)); assay: pull-down
[1] = biological target: Hilyte Fluor 488-labeled Aβ1-42 (UniProt P05067 672-713, Hilyte Fluor 488 label (position not given)); assay: native gel or EMSA
Sequence of Hilyte Fluor 488-labeled Aβ1-42 (P05067 672-713): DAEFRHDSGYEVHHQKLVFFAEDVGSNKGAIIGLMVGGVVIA

Sequence of biotinylated Aβ1-42 (P05067 672-713): as above

Row | Binder | stoichiometry N (native gel or EMSA) | binding result (biotinylated Aβ1-42) | binding result [1]
1 | B1 | 2 | binds | binds
2 | B2 | 4 | – | –
3 | B3 | 2 | – | –
